Target: Fas receptor (CD95) on mouse bone marrow cells (mouse) (UniProt P25446)
Assay: cell-based or functional assay

streptavidin-FasL chimeric protein, sequence (P22629 37-163, change not shown): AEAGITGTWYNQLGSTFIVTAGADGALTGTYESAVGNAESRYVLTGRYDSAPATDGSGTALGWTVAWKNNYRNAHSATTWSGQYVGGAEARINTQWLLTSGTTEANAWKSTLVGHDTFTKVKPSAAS
Fas receptor (CD95) on mouse bone marrow cells (mouse), sequence (P25446 22-327): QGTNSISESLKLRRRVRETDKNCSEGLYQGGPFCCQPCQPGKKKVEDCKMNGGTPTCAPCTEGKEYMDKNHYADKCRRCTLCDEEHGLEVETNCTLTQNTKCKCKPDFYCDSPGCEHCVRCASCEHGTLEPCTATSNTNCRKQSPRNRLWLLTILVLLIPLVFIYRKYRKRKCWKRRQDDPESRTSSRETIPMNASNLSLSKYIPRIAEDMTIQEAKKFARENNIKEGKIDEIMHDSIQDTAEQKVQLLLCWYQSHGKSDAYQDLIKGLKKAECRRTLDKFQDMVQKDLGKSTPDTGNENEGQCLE

clonogenic activity of STR cells at 500 ng/ml FasL protein: 26 % increase
clonogenic activity of STR cells with FasL and inhibition of caspase-3 (DEVD): 75 % increase
clonogenic activity of lin- BMC (CFU assay) (% stimulation at ~500 ng/ml FasL): 45
Substance: streptavidin-FasL chimeric protein (from UniProt P22629 37-163) (ligand)
apoptotic death of wBMC after 24 hours with FasL protein (annexin-V, 7AAD) (% of the cells): 40

Reference: US8435786
